We go through one substance from PMC12419796.

The stoichiometry N is a count of units in the complex or per binding partner.

The experiment deals with H1N1 A/PR/8/1934 (Cambridge strain) neuraminidase, recombinant soluble tetramer with tetrabrachion domain (Staphylothermus marinus | influenza A virus H1N1 A/PR/8/1934 (Cambridge strain)). Briefly: cross-linking.

With “H1N1 A/PR/8/1934 (Cambridge strain) neuraminidase, recombinant soluble tetramer with tetrabrachion domain (enzyme)”, the stoichiometry N worked out at 4.
